The source of these data is patent publication US20130251719A1.

This experiment deals with PCV2-ORF2-antigens coated on ELISA plates (porcine circovirus type 2 (PCV2)). As to the kind of experiment: competitive ELISA on PCV2-ORF2-antigens, competitor HRP-conjugated anti-PCV2 mab; residual signal of the mab. For orientation: In an ELISA, binding on a coated surface is turned into a signal by an enzyme label.

Turning to “positive control of commercialized testkit (Ingenasa)”, the OD is 0.343 OD at 450 nm.
